In the supplement of paper PMC7125110:
± gives the standard error. Fewer inactive variants are shown than the library holds.

B1: glmS ribozyme (parent)
chain: AUAAAAGCGCCAGAACUACAGAAAUGUAGUUGACGAGGAGGAGGUUUAUCGAAUUUUCGGCGGAUGCCUCCAAA

Experiments:
Conditions in all cases: with glucosamine-6-phosphate
[1] = variants of: B1; assay: self-cleavage kobs at 160 uM GlcN6P; higher = faster cleavage; RNA array
How it was run: (§1)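 Glucosamine-6-phosphate (40 μM to 10 mM) in HEPES/KCl/Mg(OAc)2 buffer was flowed over sequenced MiSeq chips, and tiles were imaged over ~14 h. Barcoded ribozyme variants there had been transcribed in situ by E. coli RNA polymerase and were tracked through a hybridised Cy3 probe at 37 °C. One- or two-exponential decay fits to per-tile medians, normalised to baseline and to non-cleaving reference variants, gave kobs. kcat and KM came from weighted Michaelis–Menten fits across concentrations.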

[2] = variants of: B1; assay: self-cleavage kobs at 640 uM GlcN6P; higher = faster cleavage; RNA array
How it was run: as §1

[3] = variants of: B1; assay: self-cleavage kobs at 2500 uM GlcN6P; higher = faster cleavage; RNA array
How it was run: as §1

[4] = variants of: B1; assay: self-cleavage kobs at 10000 uM GlcN6P; higher = faster cleavage; RNA array
How it was run: as §1

[5] = variants of: B1; assay: self-cleavage kobs at 40 uM GlcN6P; higher = faster cleavage; RNA array
How it was run: as §1

Variant | self-cleavage kobs at 160 uM GlcN6P [1] [s⁻¹] | self-cleavage kobs at 640 uM GlcN6P [2] [s⁻¹] | self-cleavage kobs at 2500 uM GlcN6P [3] [s⁻¹] | self-cleavage kobs at 10000 uM GlcN6P [4] [s⁻¹] | self-cleavage kobs at 40 uM GlcN6P [5] [s⁻¹]
C16U G40C U49C G51A | < 1e-05 | < 1e-05 | < 1e-05 | – | –
U45C A48U U65G | < 1e-05 | – | – | – | –
G7U G41C A52G | < 1e-05 | < 1e-05 | < 1e-05 | < 1e-05 | –
G38U G41A C58A C61A | < 1e-05 | < 1e-05 | – | – | –
G44U U65G C70G | < 1e-05 | – | < 1e-05 | – | –
C10A C50G U65G | 0.000143 ± 2.6e-05 | 0.000121 ± 4.2e-05 | 4.21e-05 ± 1.9e-05 | – | –
A12G G13A U45C U49C C50A A52C A53U G66U | < 1e-05 | – | < 1e-05 | – | –
C16A A52G G63U G66U | < 1e-05 | < 1e-05 | – | – | –
G29C U31C A33C A36C A53U | < 1e-05 | – | < 1e-05 | – | –
C67U C71G | 3.83e-05 ± 1.2e-05 | 4.78e-05 ± 5.4e-06 | 0.00068 ± 0.00033 | 5.12e-05 ± 5.1e-06 | 1.88e-05 ± 9.1e-06
C10A U30G A48U | < 1e-05 | < 1e-05 | < 1e-05 | < 1e-05 | –
G26U G29A U54A C70U C71U | 0.000121 ± 3.5e-05 | – | 5.37e-05 ± 2.3e-05 | – | –
A12G G37C U46C A53G C68U | – | – | – | < 1e-05 | < 1e-05
C8U A33C C71G | < 1e-05 | – | – | – | –
U30G A36U G51A | – | – | – | – | < 1e-05
G13U G41C A42U U65C | < 1e-05 | < 1e-05 | < 1e-05 | – | –
A39C C61A | < 1e-05 | < 1e-05 | < 1e-05 | < 1e-05 | < 1e-05
G40U G59C G60U C70G | – | – | – | < 1e-05 | < 1e-05
A12G G40A A42C | < 1e-05 | – | < 1e-05 | – | –
G38A G43A | – | < 1e-05 | – | < 1e-05 | < 1e-05
G38C G51U U57C | < 1e-05 | – | < 1e-05 | – | –
A12U U56G G66C | 0.000132 ± 3.1e-05 | 0.000374 ± 9e-05 | 0.000708 ± 0.00017 | – | –
G51U C61G C71G | 0.000101 ± 2.2e-05 | 0.000494 ± 0.00014 | 9.55e-05 ± 2.1e-05 | – | –
A33G C50G G66U | – | 0.000115 ± 5.2e-05 | 0.000301 ± 0.0001 | 5.3e-05 ± 2.2e-05 | 0.000106 ± 2.6e-05
G7U G29C C61U | – | – | – | – | < 1e-05

Variant | self-cleavage kobs at 160 uM GlcN6P [1] [s⁻¹] | self-cleavage kobs at 640 uM GlcN6P [2] [s⁻¹] | self-cleavage kobs at 2500 uM GlcN6P [3] [s⁻¹] | self-cleavage kobs at 10000 uM GlcN6P [4] [s⁻¹] | self-cleavage kobs at 40 uM GlcN6P [5] [s⁻¹]
C67U C68U C71G | 7.37e-05 ± 2e-05 | – | – | – | –
C11G G63U | < 1e-05 | – | < 1e-05 | < 1e-05 | –
G7U C10U G35A C68G | 0.000125 ± 5.5e-05 | – | – | 0.000284 ± 0.00012 | –
A6U A12C U49C U65G C67G | < 1e-05 | – | – | – | –
A6C A36G U47G | < 1e-05 | < 1e-05 | – | – | –
G9U C11U C34A G43U C61A C67G | < 1e-05 | – | – | – | –
A6G A36C G51U | – | – | – | < 1e-05 | < 1e-05
C8G G60A C61A | < 1e-05 | – | < 1e-05 | < 1e-05 | –
A6G G38A C50G C71A | – | – | – | – | 9.73e-05 ± 2.8e-05
U31C U45A C67A | 0.000102 ± 3e-05 | 0.000203 ± 4.8e-05 | 0.000723 ± 0.00023 | – | –
C16A G26A C68G | – | – | – | 3.65e-05 ± 1.5e-05 | 3.64e-05 ± 1.7e-05
G7C A53C | < 1e-05 | < 1e-05 | < 1e-05 | – | –
G44U U47C | < 1e-05 | – | – | – | –
A6C A15U | < 1e-05 | – | – | – | –
C8A A42U | < 1e-05 | < 1e-05 | – | – | –
A15C A39G G40A G59C | – | – | – | – | < 1e-05
A12U G41C A52U G59A G60U | < 1e-05 | – | < 1e-05 | – | –
A14U A36C A64U | < 1e-05 | < 1e-05 | – | < 1e-05 | –
G43A C61G C67U C70U | < 1e-05 | < 1e-05 | – | – | –
C11G A14U G35U C70G | 0.000125 ± 4.5e-05 | 0.000575 ± 0.0002 | 0.00022 ± 8.2e-05 | 0.000257 ± 5.4e-05 | –
C8G G38A | < 1e-05 | < 1e-05 | < 1e-05 | < 1e-05 | –
U30G G60U | – | < 1e-05 | – | < 1e-05 | < 1e-05
G38U G44C U56C U57G C70U | < 1e-05 | – | < 1e-05 | – | –
A6C G35C G41A G62A | < 1e-05 | < 1e-05 | – | – | –
G32U G59C | < 1e-05 | < 1e-05 | < 1e-05 | – | –

Variant | self-cleavage kobs at 160 uM GlcN6P [1] [s⁻¹] | self-cleavage kobs at 640 uM GlcN6P [2] [s⁻¹] | self-cleavage kobs at 2500 uM GlcN6P [3] [s⁻¹] | self-cleavage kobs at 10000 uM GlcN6P [4] [s⁻¹] | self-cleavage kobs at 40 uM GlcN6P [5] [s⁻¹]
A12G C34A C50A G60C | < 1e-05 | – | < 1e-05 | – | –
G59C C61G | < 1e-05 | – | – | < 1e-05 | < 1e-05
C8G C11G U54A | < 1e-05 | – | < 1e-05 | – | –
A36G U56A | – | < 1e-05 | – | – | < 1e-05
U30A G40C U49G | < 1e-05 | < 1e-05 | < 1e-05 | – | –
G7A C8A U49G | < 1e-05 | – | < 1e-05 | < 1e-05 | –
U45A A53U U65A | 0.000624 ± 0.00014 | 0.0024 ± 0.00081 | 0.00652 ± 0.0016 | – | –
G9U G40U U46G G62C | < 1e-05 | < 1e-05 | < 1e-05 | – | –
C8U G32A G41U | < 1e-05 | < 1e-05 | < 1e-05 | < 1e-05 | < 1e-05
G13U G41U C61G C71G | < 1e-05 | < 1e-05 | < 1e-05 | – | –
A39C A53U G59U C67U | < 1e-05 | – | – | – | –
G43U G60U U69G | < 1e-05 | < 1e-05 | – | – | –
G35C A36U | < 1e-05 | < 1e-05 | < 1e-05 | < 1e-05 | –
C50A C70G | 0.001 ± 0.00045 | 7.68e-05 ± 1.2e-05 | 6.7e-05 ± 8.5e-06 | – | –
G7C A14C U46G | < 1e-05 | < 1e-05 | < 1e-05 | – | –
U31C U54A C67G | 3.53e-05 ± 9.2e-06 | 8.75e-05 ± 2.2e-05 | 7.96e-05 ± 1.7e-05 | – | –
G41A G51C G63U C70G | < 1e-05 | < 1e-05 | – | – | –
C8U A15G G35U C67U | – | – | – | – | < 1e-05
U57A G63U C70G | – | – | – | – | < 1e-05
A6C G35U A36C | – | – | < 1e-05 | < 1e-05 | < 1e-05
G51U C61U | < 1e-05 | < 1e-05 | < 1e-05 | < 1e-05 | –
G35C C50U A53C | < 1e-05 | < 1e-05 | < 1e-05 | – | –
U56C U69C C70A | < 1e-05 | < 1e-05 | < 1e-05 | < 1e-05 | < 1e-05
A15U G29C A39G | – | – | – | 0.00376 ± 0.0005 | 6.29e-05 ± 1.7e-05
G29A A33G | < 1e-05 | < 1e-05 | < 1e-05 | < 1e-05 | –

Variant | self-cleavage kobs at 160 uM GlcN6P [1] [s⁻¹] | self-cleavage kobs at 640 uM GlcN6P [2] [s⁻¹] | self-cleavage kobs at 2500 uM GlcN6P [3] [s⁻¹] | self-cleavage kobs at 10000 uM GlcN6P [4] [s⁻¹] | self-cleavage kobs at 40 uM GlcN6P [5] [s⁻¹]
A6U G43U U57A | < 1e-05 | < 1e-05 | < 1e-05 | – | –
U47G C58U C70A | – | – | 9.31e-05 ± 2e-05 | 4.44e-05 ± 2.1e-05 | 7.14e-05 ± 3e-05
A6C A39G G41A U46A A64G | – | – | – | < 1e-05 | < 1e-05
A14G U31G G41C | < 1e-05 | < 1e-05 | – | 6.26e-05 ± 2.5e-05 | –
G7U G9C C10G A53C C61U | < 1e-05 | – | < 1e-05 | – | –
A6U C34A G63C | < 1e-05 | < 1e-05 | < 1e-05 | – | –
U30C U56C A64U | < 1e-05 | < 1e-05 | – | – | –
A39C A42C U46C | < 1e-05 | – | – | – | –
G29U G35A G40C A42G | – | – | – | – | < 1e-05
G43A U55G | < 1e-05 | – | 4.42e-05 ± 1.1e-05 | 5.21e-05 ± 7.9e-06 | –
G63U A64C | < 1e-05 | < 1e-05 | < 1e-05 | < 1e-05 | –
G40A G44U C61A | < 1e-05 | < 1e-05 | – | < 1e-05 | –
A14C G35A | < 1e-05 | < 1e-05 | < 1e-05 | < 1e-05 | –
U30C G32U C34G C50G | 7.22e-05 ± 2.9e-05 | 8.64e-05 ± 3.3e-05 | 9.31e-05 ± 2.4e-05 | – | –
C10G G62A | < 1e-05 | < 1e-05 | – | < 1e-05 | < 1e-05
G29A U31C C34U | < 1e-05 | < 1e-05 | < 1e-05 | – | –
C34U G40C U47A C67G | < 1e-05 | – | – | – | –
A39G G51U G59U | < 1e-05 | < 1e-05 | – | < 1e-05 | –
G44U G59A G60A | < 1e-05 | < 1e-05 | < 1e-05 | – | –
G66C C68G | 0.000523 ± 0.00015 | – | – | – | –
C10U G37A G63A | < 1e-05 | < 1e-05 | < 1e-05 | – | –
A28G C70A | 0.000126 ± 3.7e-05 | 6.33e-05 ± 2.1e-05 | 0.000497 ± 0.00012 | – | –
G32U A42U | < 1e-05 | < 1e-05 | – | – | –
G37A C50G U69C | 5.92e-05 ± 1.9e-05 | 7.07e-05 ± 2.7e-05 | – | – | –
